{"source": "patent US20090081760A1", "about": "“DMO METHODS AND COMPOSITIONS” (priority 2007, published 2009)", "molecules": {"B1": {"name": "Control: control (wild type) DMO of the Table 29 LC/MS screen (protein, UniProt Q5S3I3 2-339, looked up)", "Dicamba O-demethylase, …": "TFVRNAWYVAALPEELSEKPLGRTILDTPLALYRQPDGVVAALLDICPHRFAPLSDGILVNGHLQCPYHGLEFDGGGQCVHNPHGNGARPASLNVRSFPVVERDALIWIWPGDPALADPGAIPDFGCRVDPAYRTVGGYGHVDCNYKLLVDNLMDLGHAQYVHRANAQTDAFDRLEREVIVGDGEIQALMKIPGGTPSVLMAKFLRGANTPVDAWNDIRWNKVSAMLNFIAVAPEGTPKEQSIHSRGTHILTPETEASCHYFFGSSRNFGIDDPEMDGVLRSWQAQALVKEDKVVVEAIERRRAYVEANGIRPAMLSCDEAAVRVSREIEKLEQLEAA"}, "B2": {"name": "dicamba monooxygenase (DMO) (enzyme)", "chain": "MATFVRNAWYVAALPEELSEKPLGRTILDTPLALYRQPDGVVAALLDICPHRFAPLSDGILVNGHLQCPYHGLEFDGGGQCVHNPHGNGARPASLNVRSFPVVERDALIWIWPGDPALADPGAIPDFGCRVDPAYRTVGGYGHVDCNYKLLVDNLMDLGHAQYVHRANAQTDAFDRLEREVIVGDGEIQALMKIPGGTPSVLMAKFLRGANTPVDAWNDIRWNKVSAMLNFIAVAPEGTPKEQSIHSRGTHILTPETEASCHYFFGSSRNFGIDDPEMDGVLRSWQAQALVKEDKVVVEAIERRRAYVEANGIRPAMLSCDEAAVRVSREIEKLEQLEAARLEHHHHHH", "notes": "also called DMOw; DdmC"}, "B3": {"name": "A169M: DMO substitution variant (protein)", "chain": "B2 chain with W112C, A169M"}, "B4": {"name": "N218M: DMO substitution variant (protein)", "chain": "B2 chain with W112C, N218M"}, "B5": {"name": "L282I: DMO substitution variant (protein)", "chain": "B2 chain with W112C, L282I"}, "B6": {"name": "R248M: DMO substitution variant (protein)", "chain": "B2 chain with W112C, R248M"}, "B7": {"name": "N218H: DMO substitution variant (protein)", "chain": "B2 chain with W112C, N218H"}, "B8": {"name": "G266S: DMO variant from NNS mutagenesis, more active than the control (protein)", "chain": "B2 chain with W112C, G266S"}, "B9": {"name": "R248C: DMO substitution variant (protein)", "chain": "B2 chain with W112C, R248C"}, "B10": {"name": "A287M: DMO substitution variant (protein)", "chain": "B2 chain with W112C, A287M"}, "B11": {"name": "R248I: DMO substitution variant (protein)", "chain": "B2 chain with W112C, R248I"}, "B12": {"name": "R248K: DMO substitution variant (protein)", "chain": "B2 chain with W112C, R248K"}, "B13": {"name": "A287C: DMO substitution variant (protein)", "chain": "B2 chain with W112C, A287C"}, "B14": {"name": "R248L: DMO substitution variant (protein)", "chain": "B2 chain with W112C, R248L"}, "B15": {"name": "A287E: DMO substitution variant (protein)", "chain": "B2 chain with W112C, A287E"}}, "key": {"Dicamba": {"system": "Dicamba", "assay": "LC-MS/MS screen for oxygenase (DMO) activity: E. coli liquid culture expressing ddmC or a variant, grown with dicamba, DCSA detected in supernatant", "format": "cell-based", "settings": "for Changed to: M % of control for set / Changed to: M DCSA values (ppm): residue changed to M; for Changed to: I % of control for set / Changed to: I DCSA values (ppm): residue changed to I; for Changed to: C % of control for set / Changed to: C DCSA values (ppm): residue changed to C", "procedure": "An LC-MS/MS screen for oxygenase activity was used to detect DCSA. The method comprises a two stage process made up of a liquid cell culture assay coupled to an LC-MS/MS detection screen. In the liquid cell culture stage, the gene of interest, i.e. ddmC or a variant thereof, was cloned under the control of a promoter (e.g. T7 promoter, pET vector) and transformed into an E. coli host cell. […] Cells were spun down, and the supernatant was filtered and diluted tenfold with the inclusion of 8 μM salicylic acid as an internal standard. Samples of the supernatant, and/or optionally the cell pellet (or lysate thereof), from this first stage were analyzed for DCSA levels (i.e. DMO activity level) by LC-MS/MS.\nWhile many oxygenases such as DMO are multi component systems requiring other helper enzymes for activity, it was observed that components in E. coli may substitute for these helper enzymes or functions. Thus, transformation of E. coli with a single “oxygenase” gene from a multi component system nevertheless results in measurable activity for the gene alone, even without other components being co-transformed into the same E. coli cell. Activity is observed because, in E. coli cells, surrogates with homology to the original helper enzymes (e.g. ferredoxin and reductase) may be utilized. Additionally, E. coli can take up substrate (e.g. dicamba) and excrete the product (e.g. DCSA) into the media supernatant, allowing for the speed and simplicity of this cell based screen. No lysis of cells is required. Alternatively, an HPLC-based assay for DMO activity may be utilized. Promising variants were used as templates for additional rounds DOT and or other mutagenesis methods in an iterative manner. […]\nSets of saturation mutagenesis primers (using NNS degenerate triplets) for 31 residues at the active site and involved in the electron transfer chain as indicated in Table 28 were designed and used to introduce mutations into the ddmC gene by means of terminated PCR on the template (ddmC gene with His tag and two changes, T2S+I123L (SEQ ID NO:23) in pMV4 vector (Modular Genetics, Cambridge, Mass.). Resulting PCR products were treated with DpnI to remove the parental template molecules, self-annealed and transformed into chemically competent E. coli Top10 F′ (Invitrogen, Carlsbad, Calif.). Standard DNA cloning methods were utilized (e.g. Sambrook et al., 1989). The individual colonies were grown in liquid culture. DNA was isolated by a standard miniprep procedure and used to transform the chemically competent E. coli (e.g. BL21(DE3)). […] Cells were spun down, and the supernatant was filtered and diluted tenfold with 8 μM salicylic acid as an internal standard. The DCSA levels (i.e. DMO activity level) were determined by LC-MS analysis as described above (e.g. Example 8).\nAdditional single substitution variants of DMO at residues corresponding to interaction (e.g. subunit interface) domains and the ferredoxin binding site were also prepared and assayed for their effect on enzymatic activity (See also Examples 8A, 8B) by the LC/MS screen. In most cases shown in Table 29, one conservative and one neutral substitution was tried at a given residue.\nTable 30 lists DMO activity data (by LC/MS screen) for 58 variants relative to ddmC_M—6his (the wild type ddmC sequence with an N-terminal His tag (SEQ ID NO: 154), while Table 31 lists DMO activity data (by LC/MS screen) for 1685 variants relative to ddmC_RLE6his (the wild type ddmC sequence with T2S and I123L mutations (SEQ ID NO:23), and a C-terminal 6×His tag). The numbering of residues is based on the numbering found in SEQ ID NO:2 or SEQ ID NO:3."}, "[1]": {"target": "the molecule itself", "assay": "X-ray crystal structure (homotrimer in the asymmetric unit)"}, "[2]": {"settings": "DCSA relative to control average of the data set"}}, "note": "Where a chain is given by its changes, count along the chain named. In names and notes the source's numbering stands."}
{"molecule": "B1", "values": [{"measurement": "Control DCSA Produced (ppm) Set 1 average (±SD)", "setting": "Dicamba; Set 1 average", "value": "38.22 ± 7.81", "unit": "ppm"}, {"measurement": "Control DCSA Produced (ppm) Set 2 average (±SD)", "setting": "Dicamba; Set 2 average", "value": "26.59 ± 4.96", "unit": "ppm"}, {"measurement": "Control DCSA Produced (ppm) Set 3 average (±SD)", "setting": "Dicamba; Set 3 average", "value": "38.00 ± 6.87", "unit": "ppm"}]}
{"molecule": "B2", "values": [{"measurement": "binding result", "setting": "[1]", "value": "binds"}]}
{"molecule": "B3", "values": [{"measurement": "Changed to: M % of control for set", "setting": "Dicamba; [2]", "value": 108.70, "unit": "%"}, {"measurement": "Changed to: M DCSA values (ppm)", "setting": "Dicamba; mean +/− SD (n)", "value": "28.9 +/− 5.06 (4) ppm"}]}
{"molecule": "B4", "values": [{"measurement": "Changed to: M % of control for set", "setting": "Dicamba; [2]", "value": 106.92, "unit": "%"}, {"measurement": "Changed to: M DCSA values (ppm)", "setting": "Dicamba; mean +/− SD (n)", "value": "40.87 +/− 0.62 (2) ppm"}]}
{"molecule": "B5", "values": [{"measurement": "Changed to: I % of control for set", "setting": "Dicamba; [2]", "value": 116.03, "unit": "%"}, {"measurement": "Changed to: I DCSA values (ppm)", "setting": "Dicamba; mean +/− SD (n)", "value": "44.35 +/− 1.22 (4) ppm"}]}
{"molecule": "B6", "values": [{"measurement": "Changed to: M % of control for set", "setting": "Dicamba; [2]", "value": 128.37, "unit": "%"}, {"measurement": "Changed to: M DCSA values (ppm)", "setting": "Dicamba; mean +/− SD (n)", "value": "34.13 +/− 3.09 (4) ppm"}]}
{"molecule": "B7", "values": [{"measurement": "Changed to: H % of control for set", "setting": "Dicamba; residue changed to H, DCSA relative to control average of the data set", "value": 104.38, "unit": "%"}, {"measurement": "Changed to: H DCSA values (ppm)", "setting": "Dicamba; residue changed to H, mean +/− SD (n)", "value": "39.9 +/− 9.75 (4) ppm"}]}
{"molecule": "B8", "values": [{"measurement": "DMO activity of NNS mutagenesis variants (in words)", "setting": "Dicamba; NNS saturation mutagenesis variants, 200 to 500 μM Dicamba, 30 hrs, 37° C.", "value": "more active than the control"}, {"measurement": "Changed to: S % of control for set", "setting": "Dicamba; residue changed to S, DCSA relative to control average of the data set", "value": 130.25, "unit": "%"}, {"measurement": "Changed to: S DCSA values (ppm)", "setting": "Dicamba; residue changed to S, mean +/− SD (n)", "value": "34.63 +/− 4.14 (4) ppm"}]}
{"molecule": "B9", "values": [{"measurement": "Changed to: C % of control for set", "setting": "Dicamba; [2]", "value": 132.69, "unit": "%"}, {"measurement": "Changed to: C DCSA values (ppm)", "setting": "Dicamba; mean +/− SD (n)", "value": "35.28 +/− 12.15 (4) ppm"}]}
{"molecule": "B10", "values": [{"measurement": "Changed to: M % of control for set", "setting": "Dicamba; [2]", "value": 149.32, "unit": "%"}, {"measurement": "Changed to: M DCSA values (ppm)", "setting": "Dicamba; mean +/− SD (n)", "value": "39.7 +/− 5.86 (4) ppm"}]}
{"molecule": "B11", "values": [{"measurement": "Changed to: I % of control for set", "setting": "Dicamba; [2]", "value": 146.23, "unit": "%"}, {"measurement": "Changed to: I DCSA values (ppm)", "setting": "Dicamba; mean +/− SD (n)", "value": "38.88 +/− 3.93 (4) ppm"}]}
{"molecule": "B12", "values": [{"measurement": "Changed to: K % of control for set", "setting": "Dicamba; residue changed to K, DCSA relative to control average of the data set", "value": 155.15, "unit": "%"}, {"measurement": "Changed to: K DCSA values (ppm)", "setting": "Dicamba; residue changed to K, mean +/− SD (n)", "value": "41.25 +/− 4.05 (4) ppm"}]}
{"molecule": "B13", "values": [{"measurement": "Changed to: C % of control for set", "setting": "Dicamba; [2]", "value": 109.56, "unit": "%"}, {"measurement": "Changed to: C DCSA values (ppm)", "setting": "Dicamba; mean +/− SD (n)", "value": "29.13 +/− 5.46 (4) ppm"}]}
{"molecule": "B14", "values": [{"measurement": "Changed to: L % of control for set", "setting": "Dicamba; residue changed to L, DCSA relative to control average of the data set", "value": 153.00, "unit": "%"}, {"measurement": "Changed to: L DCSA values (ppm)", "setting": "Dicamba; residue changed to L, mean +/− SD (n)", "value": "40.68 +/− 10.77 (4) ppm"}]}
{"molecule": "B15", "values": [{"measurement": "Changed to: E % of control for set", "setting": "Dicamba; residue changed to E, DCSA relative to control average of the data set", "value": 113.40, "unit": "%"}, {"measurement": "Changed to: E DCSA values (ppm)", "setting": "Dicamba; residue changed to E, mean +/− SD (n)", "value": "30.15 +/− 2.76 (4) ppm"}]}
